The text below walks through data of patent US20050271676A1, “Inducing cellular immune responses to human immunodeficiency virus-1 using peptide and nucleic acid compositions” (Epimmune Inc., priority 1993, published 2005).

The target in one experiment is HLA-A*3101 (Homo sapiens, UniProt P04439, A270S/D185E/E176V/E277Q/F33T/G231S/G80R/H175R/I121M/I218V/I322F/K168Q/L300P/L318F/M331R/P217A/Q94H/R138Q/T323A/T345S/T97I/V358M). The experiment in a line: purified HLA class I binding assay, A*3101. The note with it: for A*3101 binding information: binding value.
The target of another experiment is HLA-A*3301 (Homo sapiens, UniProt P04439, A270S/D185E/E176V/E277Q/E87N/F33T/G231S/H175R/I121M/I218V/I322F/K168Q/K210R/L300P/L318F/M331R/P217A/Q86R/Q94H/R138Q/T323A/T345S/T97I/V358M/Y195H). The experiment in a line: purified HLA class I binding assay, A*3301.
For a further experiment, the target named is HLA-A*1101 (Homo sapiens, UniProt P04439, A114D/D185E/E176A/F33Y/L180Q/S129P/T187R). Description: purified HLA class I binding assay, A*1101.
The target in the next experiment is T1, HLA-A*0301 (Homo sapiens, UniProt P04439).
T1 construct: endogenous in cells; host or cells: GM3107
The experiment in a line: purified HLA class I binding assay, A*0301. The note with it: for A*0301 binding information: binding value.

A further experiment addresses HLA-A*6801 (Homo sapiens, UniProt P04439, A269V/D185E/E176V/E277Q/E87N/F33Y/G231S/I121M/I166T/I218V/L180W/L300P/L318F/N151K/P208A/P217A/Q86R/R169H/T345S). The experiment in a line: purified HLA class I binding assay, A*6801. The note with it: binding value.
The target in a further experiment is T2, HLA-DRB1*0701 (DR7) (Homo sapiens, UniProt P01903+P01911, A100R/A102G/A103Q/D57E/D86V/E43K/F76Y/K127E/L162R/M171V/P40G/Q125H/Q99D/R33Q/R42Y/R54Q/S133A/S66F/T210M/V115G/Y107V/Y59L/Y89S).
T2 construct: endogenous in cells; host or cells: Pitout
Description: biochemical. It counts as binding.

Another experiment has as its target HLA-DRB1*1302 (DR6w19) (Homo sapiens, UniProt P01903+P01911, A100E/A169T/K41T/L162R/M171V/P40S/Q125H/Q178H/Q39Y/Q99D/R42S/S66N/T262R/V115G/W38E/Y61H). Description: purified HLA class II binding assay, DRB1*1302 (DR6w19). The conditions noted are these: Table XXb, HIV DR 3a motif peptides.
The target of another experiment is T3, HLA-DRB1*0901 (DR9) (Homo sapiens, UniProt P01903+P01911, A100R/A103E/D57H/D86V/F55Y/F60I/F76Y/I96F/K127E/L162R/M171V/P40D/Q125H/Q99R/R33Q/R42F/S133A/S66N/T210M/V115G/W38K/Y107V/Y59G/Y89S).
T3 construct: endogenous in cells
The experiment in a line: biochemical. It counts as binding.

The target of another experiment is T4, HLA-DRB1*0802 (DR8w2) (Homo sapiens, UniProt P01903+P01911, A100R/A103L/A169T/F76Y/H45Y/I96F/K41T/L162R/M171V/P40S/Q125H/Q178H/Q39Y/Q99D/R218S/R42G/S66Y/V115G/W38E).
T4 construct: endogenous in cells
Description: biochemical. It counts as binding.

A further experiment deals with HLA-A*2402 (Homo sapiens, UniProt P04439, D101N/D140Y/D185E/E176V/E190D/F33S/G103R/G107R/I119L/I121M/I306V/K335N/L105A/L180Q/L300P/N151K/N90K/Q86E/Q94H/R106L/R138H/R89G/T104I/T345S/V100E/W191G/Y123F). Description: purified HLA class I binding assay, A*2402. The conditions noted are these: HIV A24 supermotif peptides; purified HLA molecule; no unit printed in Table X.

The target of another experiment is HLA-A*0201 (Homo sapiens, UniProt P04439, D140Y/D185E/D98H/E176V/E277Q/G131W/G231S/I119V/I121R/I166T/I218V/L300P/L318F/N151K/N90K/P208A/P217A/Q86G/Q94H/R138H/R169H/T345S). Description: purified HLA class I binding assay, A*0201. The note with it: HIV A02 super motif peptides, Table VIII; unit not given.
The target in the next experiment is T5, HLA-DRB1*0401 (DR4w4) (Homo sapiens, UniProt P01903+P01911, A100K/A169T/F76Y/I96L/K127E/L162R/M171V/N62H/P40V/Q125Y/R42H/S133A/S149N/S66Y/V115G/V209L/W38E).
T5 construct: endogenous in cells; host or cells: Preiss
T5 sequence (P01903 26-254 partner, other chains not shown): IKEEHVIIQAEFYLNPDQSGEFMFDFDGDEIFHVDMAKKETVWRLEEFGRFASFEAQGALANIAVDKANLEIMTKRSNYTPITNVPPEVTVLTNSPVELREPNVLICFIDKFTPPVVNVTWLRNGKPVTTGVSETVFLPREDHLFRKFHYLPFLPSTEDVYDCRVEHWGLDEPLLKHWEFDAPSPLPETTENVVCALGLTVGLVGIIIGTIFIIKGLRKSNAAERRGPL
The experiment in a line: purified HLA class II binding assay, DRB1*0401 (DR4w4). The conditions noted are these: HIV DR super motif peptides; unit not given.

Where [1] appears, read: Table IX, HIV A03 super motif peptides, unit not given.
Setting [2] is: Table IX, HIV A03 super motif peptides, binding value, unit not given.
Setting [3] is: Table XVII, HIV A11 motif peptides, binding value A*1101, unit not given.
[4] abbreviates: HIV A03 supermotif peptides, no unit given.

No end group written: not given here.

Regarding `CC[C@H](C)[C@H](NC(=O)[C@H](Cc1ccccc1)NC(=O)[C@@H](NC(=O)[C@H](C)N)C(C)C)C(=O)N[C@@H](Cc1c[nH]cn1)C(=O)N[C@@H](CC(N)=O)C(=O)N[C@@H](Cc1ccccc1)C(=O)N[C@@H](CCCCN)C(=O)N[C@@H](CCCNC(=N)N)C(=O)O` [1193.03], the 50% inhibitory concentration (IC50) (in general, the concentration needed to halve the response being measured) on HLA-A*3101 is 5.1 nM; on HLA-A*3301, 107 nM; at HLA-A*1101 it was 3.3 nM; on HLA-A*0301, 64.7 nM.
Take ASCDKCQLK: the “A*3101 binding information” value with HLA-A*3101 (setting [1]) was 0.0020. Moreover, the “A*6801 binding information” value in the experiment with HLA-A*6801 (setting [1]) was 0.0001. For the same compound, the entries for the “A*1101 (binding information)” value in the experiment with HLA-A*1101 (setting [2]) and in the experiment with HLA-A*1101 (setting [3]) were 0.0140 and 0.0040, respectively. Besides, in the experiment with HLA-A*0301 (HIV POL-derived A03 motif peptides, binding value for purified HLA-A*0301, unit not given), the “A0301 (HIV A03 Motif Peptides with Binding Information)” value is recorded as 0.0027. In addition, the “A*0301 binding information” value with HLA-A*0301 (setting [1]) worked out at 0.0027.
Take DIQIKELQK: the “A*3101 binding information” value in the experiment with HLA-A*3101 (setting [1]) turned out to be 0.0006. In the experiment with HLA-A*6801 (setting [1]), the “A*6801 binding information” value worked out at 0.0001. In addition, in the experiment with HLA-A*1101 (setting [2]), the “A*1101 (binding information)” value came to 0.0006. Moreover, the “A*0301 binding information” value with HLA-A*0301 (setting [1]) is recorded as 0.0009.
Take FTTPDKKIIQK: the “A*3101 binding information” value with HLA-A*3101 (setting [1]) turned out to be 0.0010. Further, the “A*6801 binding information” value with HLA-A*6801 (setting [1]) worked out at 0.0273. For the same compound, the “A*1101 (binding information)” value with HLA-A*1101 (setting [2]) and in the experiment with HLA-A*1101 (setting [3]) was 0.0150 throughout. Further, in the experiment with HLA-A*0301 (setting [1]), the “A*0301 binding information” value was found to be 0.0002.
For GIPHPAGLK, the “A*3101 binding information” value at HLA-A*3101 (setting [1]) is 0.0007. For the same compound, the “A*6801 binding information” value on HLA-A*6801 (setting [1]) came to 0.0110. For the same compound, the “A*1101 (binding information)” value at HLA-A*1101 (setting [2]) was 0.0650.
Regarding IKKEKVYLA, the DR7 binding information in the experiment with HLA-DRB1*0701 (DR7) was −0.0005. Further, the DR6w19 binding information with HLA-DRB1*1302 (DR6w19) was −0.0003. Moreover, the DR9 binding information in the experiment with HLA-DRB1*0901 (DR9) is on record as 0.0011. In addition, the DR8w2 binding information in the experiment with HLA-DRB1*0802 (DR8w2) is on record as −0.0015.
On to IVIWGKTPK [1193.0200], for which the IC50 is 18.2 nM on HLA-A*3101, 96.7 nM at HLA-A*3301 and 16.2 nM at HLA-A*1101.
Turning to KIQNFRVYYR [1211.32], the IC50 is 2.7 nM at HLA-A*3101 and 341 nM at HLA-A*3301.
Consider KLTEERWNK, for which the “A*3101 binding information” value with HLA-A*3101 (setting [4]) is on record as 0.0680. Further, in the experiment with HLA-A*6801 (setting [4]), the “A*6801 binding information” value amounted to 0.0002. For the same compound, the “A*1101 (binding information)” value with HLA-A*1101 (HIV A03 supermotif peptides, binding value, no unit given) is listed as 0.2700. Besides, the “A*0301 binding information” value with HLA-A*0301 (setting [4]) stood at 0.0130.
In the case of NMVEQMIIEDI, the “A*2401 (binding information)” value with HLA-A*2402 is listed as 0.0004. The “A*0201 (binding information)” value in the experiment with HLA-A*0201 is recorded as 0.0001.
As for NMWQEVGKA, in the experiment with HLA-A*2402, the “A*2401 (binding information)” value was determined as 0.0001. For the same compound, the “A*0201 (binding information)” value in the experiment with HLA-A*0201 is recorded as 0.0022.
Turning to NNLLRAIEAQQIILLQ, the DR7 binding with HLA-DRB1*0701 (DR7) was determined as 0.0150. In addition, the DR4w4 binding with HLA-DRB1*0401 (DR4w4) is 0.0150.
For the compound NTPVFAIKK [1273.02], the concentration for half-maximal inhibition (IC50) at HLA-A*3101 came to 30000 nM; at HLA-A*3301 it was 48300 nM; on HLA-A*1101 it was 100 nM.
